Experimental data: patent US10934529B2, “Three dimensional hydrogels for culturing organoids” (Ecole Polytechnique Fèdèrale de Lausanne, priority 2015, dated 2021)
Entries after “also recorded” stand apart in the source; their conditions may differ.

Tested on: intestinal stem cells (ISCs)
Assay: ISC colony formation efficiency / ISC expansion in hydrogels
Assay type: cell-based, mouse
Conditions: PEG-RGD, Wnt3a-containing medium
Experimental: Freshly isolated crypts or single cells from dissociated colonies were added to the Matrigel or hydrogels precursor solution and cast in 20-μL droplets at the bottom of wells in 24-well plate. […] For single cell culture, thiazovivin (2.5 μM; Stemgent) and Jagged-1 peptide ([…]; Anaspec) was included in the medium during the first two days. Broad spectrum protease inhibitor, GM6001, was added to the medium while embedding the cells in PEG hydrogels. Every two days the growth factors were replenished and the full medium was changed.
To quantify the colony formation efficiency of single embedded ISCs, phase contrast z-stacks spanning the entire thickness of the cell-laden Matrigel or PEG gels were collected (Zeiss Axio Observer Z1) at 5 different locations within the gels. The Cell Counter plugin in ImageJ (NIH) was used to quantify the fraction of cells which had formed colonies at day 4 after seeding. To assess the viability of intestinal tissue fragments embedded in PEG, phase contrast images of the entire gel were collected. The fraction of viable tissues was estimated based upon the epithelial morphology: tissues that featured an epithelial monolayer surrounding a central lumen after 24 h of embedding were deemed viable.

B1: Wnt3a: recombinant Wnt3a (protein, UniProt P56704 19-352, looked up)
Protein Wnt-3a: SYPIWWSLAVGPQYSSLGSQPILCASIPGLVPKQLRFCRNYVEIMPSVAEGIKIGIQECQHQFRGRRWNCTTVHDSLAIFGPVLDKATRESAFVHAIASAGVAFAVTRSCAEGTAAICGCSSRHQGSPGKGWKWGGCSEDIEFGGMVSREFADARENRPDARSAMNRHNNEAGRQAIASHMHLKCKCHGLSGSCEVKTCWWSQPDFRAIGDFLKDKYDSASEMVVEKHRESRGWVETLRPRYTYFKVPTERDLVYYEASPNFCEPNPETGSFGTRDRTCNVSSHGIDGCDLLCCGRGHNARAERRREKCRCVFHWCCYVSCQECTRVYDVHTCK
In the case of B1, the “ISC culture with Wnt3a instead of CHIR99021 and valproic acid” value is reported as “successfully cultured; also recorded: can successfully replace CHIR99021 and VPA”.
